± gives the standard deviation of the averaged measurements.
Test system: Saccharomyces cerevisiae
Test: protein stability index of tFT-peptide fusion (C-terminal peptide) (PSI (0-1 scale)); higher = more stable (slower turnover)
Details: genetic background: das1 deletion; temperature: 30 C
Method: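 MPS profiling in S. cerevisiae of the tFT-X12 degron library: putative degron peptides plus stable controls, 12 aa, fused to the C-terminus of a sfGFP-mCherry timer. Cells are FACS-sorted into 8 mCherry/sfGFP bins and deep-sequenced. PSI runs from 0 (unstable) to 1 (stable). Backgrounds are wild type, das1Δ and doa10Δ at 30 °C, and wild type, das1Δ, cdc34-1 and cdc53-1 at 37 °C; 2-3 technical replicates each.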
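Further: PSI is a weighted mean of sequencing reads over stability bins, variants kept only with over 10 reads, mCherry proximal and sfGFP distal, peptide attached via GGGS linker.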

Sequence	protein stability index
SRRRRLVSKFLA	0.653 ± 0.027
SRRSIGAYLFVS	0.635 ± 0.039
SRSFWHAIVFLA	0.542 ± 0.026
SRWMWFDWLRRA	0.686 ± 0.026
SSCFLLFRVVWR	0.257 ± 0.03
SSFDFVVSLCIY	0.39 ± 0.021
STSSVMVFLRMC	0.601 ± 0.013
SVAGFFLLLLLS	0.305 ± 0.036
SVECLCLFVACR	0.193 ± 0.026
SVFGVRARFGSV	0.709 ± 0.018
SVFVVVVLVFWY	0.22 ± 0.029
SVIAYTKPLWFR	0.351 ± 0.032
SVLRCPVILLAY	0.0735 ± 0.036
SVSFFSLCTSSL	0.506 ± 0.023
SWTAYSYQWVFF	0.4972 ± 0.0028
SWVSVLSELLAC	0.251 ± 0.045
SYCFCCCVLFWG	0.352 ± 0.028
SYFSVTLFFTVI	0.298 ± 0.032
SYRFFLFLAVFV	0.451 ± 0.034
SYVFCYICGVQS	0.411 ± 0.03
SYVRLDLFFFLG	0.491 ± 0.012
TGVPNPSVAVMC	0.457 ± 0.025
TIYGYEVTRKIG	0.621 ± 0.019
TLLAFLIYLCFL	0.403 ± 0.023
TPVIPLIRVRDC	0.568 ± 0.017
TTGLLPSAYIWS	0.6494 ± 0.0043

Sequence	protein stability index
TVWRRIRHACAH	0.596 ± 0.013
VAVYVGVGVSLG	0.311 ± 0.03
VAWFFFAYAFFM	0.321 ± 0.043
VCALHSAPLLIF	0.352 ± 0.034
VCLVLVVVWWSG	0.222 ± 0.021
VCRGWCVVRYIL	0.574 ± 0.012
VCVFNLTLVGTH	0.347 ± 0.027
VFFFFSLVNFRV	0.459 ± 0.042
VFFLFLVFLTVV	0.23 ± 0.01
VFFRCVCCLSVF	0.327 ± 0.024
VFFVLIFLLFLF	0.4 ± 0.03
VFGSVAALRLLM	0.6508 ± 0.0024
VFLFSWYIFSVF	0.234 ± 0.031
VFLRCRSLSMRV	0.397 ± 0.028
VFMTLHCITIYK	0.379 ± 0.029
VFSCFLFLVVLV	0.205 ± 0.035
VFVFLFVFLFLL	0.214 ± 0.047
VGCHISAFSDLI	0.66 ± 0.023
VGFIVCFFFSFG	0.325 ± 0.033
VGIVWELGCWMG	0.325 ± 0.023
VGTGVGEGGGVV	0.645 ± 0.016
VICVVLSKVFLF	0.495 ± 0.027
VIGFGEVWIRCV	0.435 ± 0.025
VILYCSNVAVCS	0.246 ± 0.019
VIVKSRTTLYIS	0.538 ± 0.013
VIWVLGALASWG	0.479 ± 0.035

Sequence	protein stability index
VKVIILYKIIEV	0.327 ± 0.029
VLAYFCYVVFVI	0.27 ± 0.0087
VLCMSIFIVFGI	0.195 ± 0.024
VLLLLGGIVCVM	0.222 ± 0.024
VLLLRRPLLVFS	0.149 ± 0.028
VLLVRIFLCWVC	0.184 ± 0.017
VLLYRIAPRLLH	0.6298 ± 0.0035
VLSLYWLIISRL	0.616 ± 0.016
VLVSVSLRVCMV	0.106 ± 0.03
VLVVLRSEVSLS	0.227 ± 0.027
VLVVVAFVALPR	0.285 ± 0.015
VLWSCCGGVRVR	0.465 ± 0.023
VLWVYLFLFVIF	0.248 ± 0.022
VLYSRFPPPLIA	0.43 ± 0.022
VMWFVLVGLCIL	0.382 ± 0.044
VNTLCCVFRCNL	0.816 ± 0.013
VPRGAALIFLCF	0.53 ± 0.036
VPRSLYSVLRLA	0.652 ± 0.044
VPSPWLIRSLMS	0.643 ± 0.037
VQLFCLRREMII	0.503 ± 0.027
VRELGVGGWRRQ	0.619 ± 0.016
VRLLLIFRLLVI	0.417 ± 0.039
VRNYWKYVVIFP	0.617 ± 0.0079
VSCFIVSFWVFL	0.355 ± 0.02
VSFEFSVLWTVF	0.515 ± 0.022
VSLCVVYGLVVG	0.29 ± 0.029

Same assay, conditions: genetic background: das1 deletion; temperature: 37 C

Sequence	protein stability index
SRRRRLVSKFLA	0.729 ± 0.03
SRRSIGAYLFVS	0.768 ± 0.031
SRSFWHAIVFLA	0.649 ± 0.0067
SRWMWFDWLRRA	0.747 ± 0.029
SSCFLLFRVVWR	0.436 ± 0.0013
SSFDFVVSLCIY	0.49 ± 0.015
STSSVMVFLRMC	0.708 ± 0.036
SVAGFFLLLLLS	0.487 ± 0.02
SVECLCLFVACR	0.3432 ± 0.0011
SVFGVRARFGSV	0.781 ± 0.027
SVFVVVVLVFWY	0.33 ± 0.024
SVIAYTKPLWFR	0.498 ± 0.009
SVLRCPVILLAY	0.0681 ± 0.008
SVSFFSLCTSSL	0.541 ± 0.011
SWTAYSYQWVFF	0.577 ± 0.016
SWVSVLSELLAC	0.362 ± 0.0082
SYCFCCCVLFWG	0.559 ± 0.056
SYFSVTLFFTVI	0.419 ± 0.0015
SYRFFLFLAVFV	0.574 ± 0.0017
SYVFCYICGVQS	0.596 ± 0.015
SYVRLDLFFFLG	0.5727 ± 0.0048
TGVPNPSVAVMC	0.6489 ± 0.005
TIYGYEVTRKIG	0.732 ± 0.031
TLLAFLIYLCFL	0.546 ± 0.0095
TPVIPLIRVRDC	0.691 ± 0.021
TTGLLPSAYIWS	0.768 ± 0.033

Sequence	protein stability index
TVWRRIRHACAH	0.702 ± 0.035
VAVYVGVGVSLG	0.546 ± 0.004
VAWFFFAYAFFM	0.488 ± 0.015
VCALHSAPLLIF	0.496 ± 0.0065
VCLVLVVVWWSG	0.338 ± 0.0041
VCRGWCVVRYIL	0.7226 ± 0.0024
VCVFNLTLVGTH	0.449 ± 0.0089
VFFFFSLVNFRV	0.606 ± 0.017
VFFLFLVFLTVV	0.324 ± 0.018
VFFRCVCCLSVF	0.412 ± 0.014
VFFVLIFLLFLF	0.46 ± 0.012
VFGSVAALRLLM	0.7704 ± 0.003
VFLFSWYIFSVF	0.42493 ± 0.00033
VFLRCRSLSMRV	0.5352 ± 0.0026
VFMTLHCITIYK	0.519 ± 0.052
VFSCFLFLVVLV	0.283 ± 0.023
VFVFLFVFLFLL	0.313 ± 0.013
VGCHISAFSDLI	0.752 ± 0.011
VGFIVCFFFSFG	0.459 ± 0.017
VGIVWELGCWMG	0.543 ± 0.023
VGTGVGEGGGVV	0.73 ± 0.011
VICVVLSKVFLF	0.588 ± 0.0071
VIGFGEVWIRCV	0.619 ± 0.023
VILYCSNVAVCS	0.4263 ± 0.0013
VIVKSRTTLYIS	0.613 ± 0.0096
VIWVLGALASWG	0.632 ± 0.011

Sequence	protein stability index
VKVIILYKIIEV	0.5352 ± 0.0045
VLAYFCYVVFVI	0.3896 ± 0.0036
VLCMSIFIVFGI	0.352 ± 0.019
VLLLLGGIVCVM	0.412 ± 0.0065
VLLLRRPLLVFS	0.229 ± 0.014
VLLVRIFLCWVC	0.338 ± 0.0097
VLLYRIAPRLLH	0.735 ± 0.016
VLSLYWLIISRL	0.742 ± 0.012
VLVSVSLRVCMV	0.206 ± 0.015
VLVVLRSEVSLS	0.3847 ± 0.0022
VLVVVAFVALPR	0.485 ± 0.035
VLWSCCGGVRVR	0.65 ± 0.022
VLWVYLFLFVIF	0.346 ± 0.0079
VLYSRFPPPLIA	0.554 ± 0.02
VMWFVLVGLCIL	0.506 ± 0.021
VNTLCCVFRCNL	0.889 ± 0.026
VPRGAALIFLCF	0.6215 ± 0.0013
VPRSLYSVLRLA	0.714 ± 0.012
VPSPWLIRSLMS	0.716 ± 0.026
VQLFCLRREMII	0.583 ± 0.043
VRELGVGGWRRQ	0.752 ± 0.004
VRLLLIFRLLVI	0.551 ± 0.0066
VRNYWKYVVIFP	0.7338 ± 0.0065
VSCFIVSFWVFL	0.546 ± 0.008
VSFEFSVLWTVF	0.574 ± 0.029
VSLCVVYGLVVG	0.446 ± 0.015
